For one molecule, IC50 results are on record in patent US20180002421A1 (INSERM INSTITUT NATIONAL DE LA SANTA ET DE LA RECHERCHE …, published 2018).

For orientation: IC50 means the concentration needed to halve the response being measured.

This assay addresses T1, orexin receptor type 1 (OX1R), recombinant, stably expressed on HEK cells (human, UniProt O43613 1-425).
T1 construct: whole, on cells; also called HEK-OX1R; hypocretin receptor type 1
T1 sequence (looked up): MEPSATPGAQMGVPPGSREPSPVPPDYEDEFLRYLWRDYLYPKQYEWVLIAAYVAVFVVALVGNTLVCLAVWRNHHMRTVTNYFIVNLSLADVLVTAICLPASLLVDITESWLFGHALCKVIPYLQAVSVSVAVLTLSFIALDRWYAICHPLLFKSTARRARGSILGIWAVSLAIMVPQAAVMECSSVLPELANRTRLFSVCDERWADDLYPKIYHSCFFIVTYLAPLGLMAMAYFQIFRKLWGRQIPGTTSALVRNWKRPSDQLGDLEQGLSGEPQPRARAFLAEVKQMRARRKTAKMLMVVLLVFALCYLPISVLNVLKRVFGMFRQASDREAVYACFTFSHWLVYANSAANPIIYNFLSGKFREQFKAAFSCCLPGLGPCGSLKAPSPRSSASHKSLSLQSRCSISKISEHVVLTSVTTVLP
Kind of assay: competitive inhibition of 125I-OxA binding to HEK-OX1R cells.

B1: C2 antibody (antibody, V domains shown)
VH: EVQLVESGGSLVKPGGSLRLSCAASGFTFSNSYMNWVRQAPGKGLEWISSIYGSSRYIDYADFVKGRFTISRDNATNSLYLQMNSLRAEDTAVYYCVRSSSYYGSGMDVWGRGTLVTVSS
VL: QSVLTQPASVSGSPGQSITISCAGTSSDVGGYGSVSWYQQHPGKAPKLMIYYDSYRPSGVSNRFSGSKSGNTASLTISGLQAEDEADYYCSSNTNSSTRVFGGGTKLAVLG
notes: Human antibody from phage display; also called anti-OX1R antibody C2
Regarding B1, the IC50 was around 5 µM.
